Experimental data: patent US9090686B2, “Antibodies for the treatment of HIV” (Pierre Fabre Medicament, priority 2009, dated 2015)

Tests used:
NIH3T3 cells = assay: FACS binding to parent NIH3T3 cells; details: for binding to parent NIH3T3 cells (in words): FACS; for NIH3T3 (MFI): Mab 10 μg/ml, Mean Fluorescence Intensity by FACS
Description: NIH3T3 and NIH3T3-hCXCR4 transfected cells were incubated with 10 μg/ml of monoclonal antibodies 515H7 and 301aE5. The cells were then washed with 1% BSA/PBS/0.01% NaN3. Next, Alexa-labeled secondary antibodies were added to the cells and were allowed to incubate at 4° C. for 20 min. The cells were then washed again two times. Following the second wash, FACS analysis was performed.
NIH3T3-hCXCR4 transfected cells were incubated with a dose range of monoclonal antibody c515H7 from 0 μg/ml to 10 μg/ml. The cells were then washed with 1%BSA/PBS/0.01% NaN3. Next, Alexa-labeled secondary antibodies were added to the cells and were allowed to incubate at 4° C. for 20 min. The cells were then washed again two times. Following the second wash, FACS analysis was performed.
NIH3T3, NIH3T3-hCXCR4 transfected were incubated with 0 to 10 μg/mL of humanized Mabs 515H7 (hz515H7 VH1 D76N VL2, hz515H7 VH1 D76N VL2.1, hz515H7 VH1 D76N VL2.2, hz515H7 VH1 D76N VL2.3) for 20 min at 4° C. in the dark in 100 μl Facs buffer. After 3 washing in Facs buffer, cells were incubated with the secondary antibody, a goat anti-human Alexa 488 (dilution 1/500), for 20 minutes at 4° C. in the dark. After 3 washing in Facs buffer, propidium iodide was added in each well and only viable cells were analyzed by Facs. At least 5000 viable cells were assessed to evaluate the mean value of fluorescence intensity for each condition.

[1] = biological target: T1, native form of CXCR4 expressed at the cell surface of monocytes and T lymphocytes (Homo sapiens, UniProt P61073); assay: FACS binding to peripheral blood mononuclear cells (whole blood); details: CD3 positive and CD14 positive cells, whole blood of healthy donor
T1 construct: the native form of CXCR4 expressed at the cell surface of monocytes and T lymphocytes; endogenous in cells; host or cells: whole blood (buffy coat) of a healthy donor; CD14+ monocytes and CD3+ T cells
T1 sequence (P61073 whole entry): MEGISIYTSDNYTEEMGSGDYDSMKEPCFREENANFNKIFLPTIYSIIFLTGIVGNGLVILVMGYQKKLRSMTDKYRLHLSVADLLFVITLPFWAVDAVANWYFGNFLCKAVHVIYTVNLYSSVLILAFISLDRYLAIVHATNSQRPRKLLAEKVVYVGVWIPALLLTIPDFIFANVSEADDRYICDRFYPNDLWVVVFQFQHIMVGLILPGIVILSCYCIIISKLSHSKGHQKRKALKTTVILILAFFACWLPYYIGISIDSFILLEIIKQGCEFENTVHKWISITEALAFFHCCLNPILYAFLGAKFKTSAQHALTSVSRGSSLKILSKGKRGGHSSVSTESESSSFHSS
Description: Blood was collected as buffy coat from healthy donor. 100 μl of whole blood was incubated with anti-human CXCR4 antibodies (clones 515H7 and 301aE5) at the indicated concentration for 20 minutes at 4° C. Blood was washed three times in PBS-BSA 1%-NaN3 0.01% and incubated with goat anti-human Alexa 488 IgG diluted 1:500 (Invitrogen) for 20 minutes at 4° C. Cells were then washed and incubated with CD14-PE (Caltag) or CD3-PE (Caltag) for 10 minutes at 4° C. and washed three times. Red blood cells were lysed with High-Yield lyse solution (Caltag) for 10 minutes at room temperature. Cells were analyzed immediately using Facscalibur (Becton-Dickinson). CXCR4 expression on monocytes was done on CD14 positive cells and CXCR4 expression on T cell was done on CD3 positives cells (FIG. 1). Results are expressed in Antigen Binding Capacity (ABC).

[2] = tested on: HIV-1 X4 primary isolate MN; assay: Single cycle neutralization assay in human PBMC, isolate MN; type: cell-based; design: MN % inhibition of infected cells 90 / MN % inhibition of infected cells 80: unit not given here; details: for MN % inhibition of infected cells 80: IC for 80% inhibition; for MN % inhibition of infected cells 80 / MN % inhibition of infected cells 90: human PBMC; for MN % inhibition of infected cells 90: IC for 90% inhibition
Description: This assay is performed in 36 h using primary isolates KON, MN and 92UG024 concentrated and diluted accordingly to allow the detection 2% infected CD4 T lymphocytes after 2 days of infection.
Twenty-five microliters of various dilutions of Mabs 515H7, c515H7 and 301aE5 were incubated for 1 h at 37° C. with 25 μl of virus. Human PBMC (25 μl) at 20×10^6 cells/ml were added to the Mab/virus mixture in a 96-well plate (U-bottom, Costar 3599) and cultured for 36 h in RPMI 1640 10% FCS and 20 U/ml IL-2 (R&D Systems, Minneapolis, Minn.).
After 2 days of culture, HIV-infected lymphocytes were detected by intracellular staining of viral p24 Ag. Cells were fixed and permeabilized using both Cytofix/Cytoperm and Perm/Wash kits (BD Biosciences) according to the manufacturer and stained with a fluorescent anti-p24 Mab (FITC- or PE-anti-p24, clone KC57; Beckman Coulter/Immunotech, Hialeah, Fla.) used at a 1/160 dilution in Perm/Wash solution added for 15 min at 4° C. After washing in PBS with 3% FBS, PBMC were diluted in 300 μl of PBS before flow cytometry analysis (LSRII; BD Biosciences) with DIVA software (BD Biosciences). The percentage of p24-positive cells in the different samples was determined by gating 20,000 events on a living cell population identified by forward- and side-scatter parameters. The living cell subsets were analyzed with the live/dead solution kit (Invitrogen). The p24 Ag-positive value was obtained after subtraction of background events in mock-infected cells.
The percent of neutralization was defined as the reduction of p24-positive cells compared with control infected wells with no Mab. The neutralizing titer was defined as the concentration of antibody (interpolated between successive dilutions performed in triplicate) that allows a 90% decrease in the percentage of infected cells.

human CXCR4 = human CXCR4 (Homo sapiens, UniProt P61073); assay: SDF-1-induced calcium release in CHO-CXCR4 cells; type: cell-based; design: expressed in transfected cells; details: Mab 133 nM, SDF-1 100 nM
Chain of human CXCR4 (P61073 whole entry): as above
Text: This functional assay was designed to monitor CXCR4 receptor signaling via stimulation of the phospholipase C pathway, inducing calcium liberation from intracellular stores from the endoplasmic reticulum.
CHO-K1 cells, stably and constitutively expressing human CXCR4 receptor were obtained upon transfection of naïve CHO-K1 cells (ATCC CCL-61) with a mammalian expression vector carrying the whole coding sequence of human CXCR4 receptor (RefSeq NM_003467). Cells were propagated in complete culture medium [DMEM-Ham's F12 supplemented with 5% fetal calf serum (FCS) and 500 μg/ml of geneticin]. Cells were plated in black 96MW plates at a density of 100,000 cells/well in appropriate culture medium. Cells were starved overnight before conducting the experiments. Cells are loaded with the fluorescent calcium dye (Fluo-4 No Wash, Invitrogen US) in loading buffer [HBSS 1×, HEPES 20 mM, Probenicid acid 25 mM] for 30 min. at 37° C. followed by 30 min. at 25° C. Stimulation by SDF-1 was performed by direct injection into each well. For antagonism experiments, 10 μl of Mab solution are added directly into the loading buffer at least 10 min. before SDF-1. Kinetic fluorescence measurements are performed on a multi-mode fluorescence microplate reader Mithras LB940 (Berthold) using the following settings: excitation at 485 nm, emission at 535 nm, excitation energy at 10000 arbitrary units. Fluorescence in each well is recorded during 0.1 second every second and for a time period of 20 sec. prior SDF-1 injection (basal signal). Then 20 μl of SDF-1 are injected and data recording follows for a time period of 2 min. Each experimental condition is performed in duplicate. Values for each well are first corrected by subtracting the basal fluorescence and the fluorescence emitted by a control well without cells. Relative data are expressed as a percentage of the maximal stimulation obtained by SDF-1 (100 nM).

Row | Molecule | binding to parent NIH3T3 cells (in words) (NIH3T3 cells) | NIH3T3 (MFI) (NIH3T3 cells) | staining of T lymphocytes and monocytes [1] | inhibition of HIV-1 X4 MN primary isolate replication in PBMC (in words) [2] | MN % inhibition of infected cells 80 [2] | MN % inhibition of infected cells 90 [2] | inhibition of the SDF-1-induced calcium signal (in words) (human CXCR4)
1 | 515H7: murine anti-CXCR4 monoclonal antibody; light chain variable domain SEQ ID No. 7, heavy chain variable domain SEQ ID No. 8 (antibody, listed as Mus musculus, V domains shown) VH: EVNLVESGGGLVQPGGSLRLSCATSGFTFTDNYMSWVRQPPGKALEWLGFIRNKANGYTTDYSASVRGRFTISRDNSQSILYLQMNALRAEDSATYYCARDVGSNYFDYWGQGTTLTVSS VL: DIVMSQSPSSLAVSAGEKVTMSCKSSQSLFNSRTRKNYLAWYQQKPGQSPKLLIYWASARDSGVPARFTGSGSETYFTLTISRVQAEDLAVYYCMQSFNLRTFGGGTKLEIK | no recognition | 16 | stained both T lymphocytes (FIG. 2A) and monocytes (FIG. 2B) | able to inhibit | 1.5 | 10 | strong inhibition
2 | 301aE5: murine anti-CXCR4 monoclonal antibody; light chain variable domain SEQ ID No. 34, heavy chain variable domain SEQ ID No. 35 (antibody, listed as Mus musculus, V domains shown) VH: QVQLKESGPGLVAPSQSLSITCTVSGFSLTDYGVYWVRQPPGKGLEWLGMIWGDGTTDYNSALKSRLSISKDNSKSQVFLKMNTLQTDDTARYYCARGRQFGFDYWGQGTTLTVSS VL: DIVMSQSPSSLAVSAGEKVTMRCKSSQSLFNSRTRKNYLAWYQQKPGQSPKLLIFWASIRESGVPDRFTGSGSGTDFTLTISSVQAEDLAVYYCKQSYNLRTFGGGTKLEIK | no recognition | 21 | stained both T lymphocytes (FIG. 2A) and monocytes (FIG. 2B) | able to inhibit | 150 | >150 | partial inhibition
3 | c515H7: chimeric antibody 515H7: murine variable domains fused to human Ckappa and IgG1/IgG2/IgG4 constant domains; isotype tested not stated (antibody, V domains shown) VH: EVNLVESGGGLVQPGGSLRLSCATSGFTFTDNYMSWVRQPPGKALEWLGFIRNKANGYTTDYSASVRGRFTISRDNSQSILYLQMNALRAEDSATYYCARDVGSNYFDYWGQGTTLTVSS VL: DIVMSQSPSSLAVSAGEKVTMSCKSSQSLFNSRTRKNYLAWYQQKPGQSPKLLIYWASARDSGVPARFTGSGSETYFTLTISRVQAEDLAVYYCMQSFNLRTFGGGTKLEIK | No binding was detected | – | – | able to inhibit | 1 | 15 | strong inhibition
